A short description of the data set: yeast display, Sf9 membrane polyspecificity reagent, FACS + sequencing; frameworks hold sequencing errors. The method, boiled down:
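A synthetic nanobody library was expressed on Saccharomyces cerevisiae BJ5465 by galactose induction for 36–48 hours. The library was stained for 1 hour at 4 °C with 10% biotinylated, detergent-solubilized Sf9 membrane reagent and enriched with streptavidin microbeads before FACS. Low and high (top ~1%) gates were set on anti-HA fluorescence for expression and streptavidin fluorescence for reagent binding, and each polyreactivity label reflects the gate of origin.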
For “QVQLVESGGGLVQAGGSLRLSCAASGSTFGVYALGWYIPAPGKERELVDRITWSGGSTYYADSVKGRFTISRDNAKNTVYLQMNSLKPEDTAVFYCAARAWWDWYSPLWYYYWGQGTQVTVSS”, the “polyreactivity (PSR sort gate)” value is listed as “high polyreactivity”.
Consider “QVQLVESGGGLVQAGGSLRLSCAASGSTFGVYAMGWYRQAPAKEMELVARITWSGGSTDYADSVKGRFTISRDNAKNTVYLQMNSLKPEDTAVYYCAARAWWDWYSPRWYYYWGQGTQVTVSS”, for which the “polyreactivity (PSR sort gate)” value is “high polyreactivity”.
In the case of “QVQLVESGGGLVQAGGSLRLSCAASGSTFGVYAMGWYRQAPGKERELVAAINYSGRTYYADSVKGRFTISRDNAKNTVYLQMNSLKPEDTAVYYCAARIIVDDVGTKYYYWGQGTQVTVSS”, the “polyreactivity (PSR sort gate)” value is reported as “high polyreactivity”.
Turning to “QVQLVESGGGLVQAGGSLRLSCAASGSTFGVYAMGWYRQAPGKERELVAAISGSGGSTYYADSVKGRFTISRDNAKNTVYLQMNSLKPEDTAVYYCAAKVRHYYSASNYYYWGQGTQVTVSS”, the “polyreactivity (PSR sort gate)” value was “high polyreactivity”.
In the case of “QVQLVESGGGLVQAGGSLRLSCAASGSTFGVYAMGWYRQAPGKERELVAAISYTGGSTYYADSVKGRFTISRDNAKNTVYLQMNSLKPEDTAVYYCATRSRDQYSVSYRLDYWGQGTQVTVSS” it was “low polyreactivity”.
Under “QVQLVESGGGLVQAGGSLRLSCAASGSTFGVYAMGWYRQAPGKERELVATITRSGGNTYYADSVKGRFTISRDNAKNTVYLQMNSLKPEDTAVYYCAARRLYGSQRGYWGQGTQVTVSS” stands “high polyreactivity”.
As to “QVQLVESGGGLVQAGGSLRLSCAASGSTFGVYARGWYRQAPGKERELVAAIRDRGGSTYYADSVKGRFTISRDNAKNTVYLQMNSLKPEDTAVYYCATRTWWEYYYWGQGTQVTVSS”, the “polyreactivity (PSR sort gate)” value is on record as “high polyreactivity”.
Consider “QVQLVESGGGLVQAGGSLRLSCAASGSTFGVYARGWYRQAPGKERELVAAISSSTGSTYYADSVKGRFTISRDNEKNTVYLQMNSLKPEDTAVYYCAAAGYGKVRGDYWGQGTQVTVSS”, for which the “polyreactivity (PSR sort gate)” value is “low polyreactivity”.
As to “QVQLVESGGGLVQAGGSLRLSCAASGSTFGWNAMGWYRKAPGKERELVAAISSYGGITYYADSVKGRFTISRDNEKNTVYLQMNSLKPEDTAVYYCAAERDDDWVNYWGQVTQVTVSS”, the “polyreactivity (PSR sort gate)” value was “low polyreactivity”.
Under “QVQLVESGGGLVQAGGSLRLSCAASGSTFGWNAMGWYRQAPGKERDLVAAITGGGSTYYADSVKGRFTISRDNAKNTVYLQMNSLKPEDSAVYYCEGDYWGQGTQVTVSS” stands “low polyreactivity”.
Turning to “QVQLVESGGGLVQAGGSLRLSCAASGSTFGWNAMGWYRQAPGKERELVAAITADDDDTYYADSVKGRFTISRDNAKNTVYLQMNSLKPEDTAVYYCATEKWFWYGDWYDYWGQGTQVTLSS”, the “polyreactivity (PSR sort gate)” value is given as “high polyreactivity”.
In the case of “QVQLVESGGGLVQAGGSLRLSCAASGSTFGWNAMGWYRQAPGKERELVAAITRGGRTTYADSVKGRFTISRDNAKNTVYLQMNSLKPEDTAVYYCAALHGRYPNRYDYWGQGTQVTVSS” it was “low polyreactivity”.
For “QVQLVESGGGLVQAGGSLRLSCAASGSTFGWYAMGWYRKAPGKERELVAAISTTGGRTYYADSVKGRFTISRDNAKNTVYLQMNSLKPEDTAVYYCNARGRRYVYSYGYDYWGQGTQVTVSS”, the “polyreactivity (PSR sort gate)” value was “high polyreactivity”.
In the case of “QVQLVESGGGLVQAGGSLRLSCAASGSTFGWYAMGWYRQAPGKERDFVASITSSTGSTYYADSVKGRFTISRDNAKNTVYLQMYSLKPEDTAVYYCAASYVYTFLSYLLEYDYWGQGTQVTVSS” it was “high polyreactivity”; in that of “QVQLVESGGGLVQAGGSLRLSCAASGSTFGWYAMGWYRQAPGKERELVAAITSGGGTYYADSVKGRFTISRDNAKNTVYLQMNSLKPEVTAVYYCAADFVYSGWAPYDFWVTSYDYWGQGTQVTVSS”, “low polyreactivity”; in that of “QVQLVESGGGLVQAGGSLRLSCAASGSTFGWYAMGWYRQAPGKERELVASITSGGRTNYADSVKGRFTISRDNAKNTVYLQMNSLKTEDTAVYYCAKRVYGSNSLYDYWGQGTQVTVSS”, “low polyreactivity”.
For the sequence “QVQLVESGGGLVQAGGSLRLSCAASGSTFGWYVMGWYRQAPGKERELVAAITTGGSTNYADSVKGRFTISRDHAKNSVYLQMNSLKPEDTAVYYCGKAVTEVIYRGVTEGAVDYWGQGTQVTVSS”, the “polyreactivity (PSR sort gate)” value was “low polyreactivity”.
In the case of “QVQLVESGGGLVQAGGSLRLSCAASGSTFGYNAMGWYRQAPGKERELVAAISWSGGSTYYADSVKGRFTISRDNAKNTVYLQMNSLKPEDTAVYYCAALTHYGGYGYTYDYWGQGTQVTVSS”, the “polyreactivity (PSR sort gate)” value is reported as “low polyreactivity”.
For the sequence “QVQLVESGGGLVQAGGSLRLSCAASGSTFGYNAMGWYRQAPGKERELVAAITWSGGSTYYADSVKGRFTISRDNAKNTFYFQMNSLKPEDTAVYYCAAEWGVGKSWLEYLLFYYWGQGTQVTVSS”, the “polyreactivity (PSR sort gate)” value is “low polyreactivity”.
As to “QVQLVESGGGLVQAGGSLRLSCAASGSTFGYNAMGWYRQAPGKERELVAAITYRGSTYYADSVKGRFTISRDNAKNTVYLQMNSLKPEDTAVYYCATQGARYYHTYGYWGQGTQVTVSS”, the “polyreactivity (PSR sort gate)” value is on record as “low polyreactivity”.
As for “QVQLVESGGGLVQAGGSLRLSCAASGSTFGYNTMGWYREAPGKERELVAAITGTGRTNYADSVKGRFTISRDNAKNTVYLQMNSLKPEDTAVYYCNARQAGTRYKYGYYGRYYWGQGTQVTVSS”, the “polyreactivity (PSR sort gate)” value is “high polyreactivity”.
Take “QVQLVESGGGLVQAGGSLRLSCAASGSTFGYYAMGWYRQAPGKEMELVAAITSGASTNYADSVKGRFTISRDNAKNTVYLQMNSLKPEDTAVYYCAADFLSPAYRPSWYRFDYWGQGTQVTVSS”: the “polyreactivity (PSR sort gate)” value was “low polyreactivity”.
For the sequence “QVQLVESGGGLVQAGGSLRLSCAASGSTFGYYAMGWYRQAPGKERELVAAIRSSGGGTYYADSVKGRFTISRDNAKNTVYLQMNSLKPEDTAVYYCATDAPILVNAEYDEWLEYDYWGQGTQVTVSS”, the “polyreactivity (PSR sort gate)” value is “low polyreactivity”.
For “QVQLVESGGGLVQAGGSLRLSCAASGSTFGYYAMGWYRQAPGKERELVAAITGRGGSTYYADSVKGRFTISRDNAKNTVYLQMNSLKPEDTAVYYCAVGKYRLYYSGAYGYWGQGTQVTVSS”, the “polyreactivity (PSR sort gate)” value was “high polyreactivity”.
On to “QVQLVESGGGLVQAGGSLRLSCAASGSTFGYYAMGWYRQAPGKERELVAAITKRSGRTYYADSVKGRFTISRDNAKNTVYLQLNSLKPEDTAVYYCAARYTFDRWKFGYWGQGTQVTVSS”, for which the “polyreactivity (PSR sort gate)” value is recorded as “high polyreactivity”.
Take “QVQLVESGGGLVQAGGSLRLSCAASGSTFGYYAMGWYRQAPGKERELVAGISSGGTTKYADSVKGRFTISRDNAKNTVYLQMNSLTPVDTAVYYCAARFRRTRVTYYYWGQGTQVTVSS”: the “polyreactivity (PSR sort gate)” value is “high polyreactivity”.
In the case of “QVQLVESGGGLVQAGGSLRLSCAASGSTFGYYAMGWYRQAPGKERELVAVITRSGDRTYYADSVKGRFTISRDNAKNTVYLQMNSLKPEDTGVYYCAARATSAGGVAEYYWGQGTQVTVSS”, the “polyreactivity (PSR sort gate)” value is recorded as “high polyreactivity”.
Regarding “QVQLVESGGGLVQAGGSLRLSCAASGSTFHIYAMGWYRQAPGKERELVAAINRSGGSTRYADSVKGRFTISRDNAKNTVYLQMNSLKPEDTAVYYCATKRSTGYYWGQGTQVTVSS”, the “polyreactivity (PSR sort gate)” value is “high polyreactivity”.
Turning to “QVQLVESGGGLVQAGGSLRLSCAASGSTFHLNAMGWYRQAPGKERELVAAISWDGSSTSYADSVKGRFTISRDNANNTVYLQMNSLKPEDTAVYYCAADDTLDRVPTTFIDGSPGYGYWGQGTQVTVSS”, the “polyreactivity (PSR sort gate)” value is reported as “low polyreactivity”.
In the case of “QVQLVESGGGLVQAGGSLRLSCAASGSTFHLYAMGWYRQAPGKEREFVAAIRGRGGNTYADSVKGRFTISRDNAKNTVYLQMNSLKPEDTAFYYCAAPLLRDLRSPYSYNYWGQGTQVTVSS”, the “polyreactivity (PSR sort gate)” value is “low polyreactivity”.
Under “QVQLVESGGGLVQAGGSLRLSCAASGSTFHRNAMGWYRQAPGKERELVAAISWRGGSTYYADSVKGRFTISRDNAKNNVYLLMNSLKPEDTAVYYCNAVERYWDYGYWGQGTQVTVSS” stands “low polyreactivity”; under “QVQLVESGGGLVQAGGSLRLSCAASGSTFHRYAMGWSRQAPGKERELVAAISLSGGRTYYADSVKGRFTISRDNAKNTVYLQMNSLKPEDSAVYYCNALVPSGNGDHDYWGQGTQVTVSS”, “high polyreactivity”.
In the case of “QVQLVESGGGLVQAGGSLRLSCAASGSTFHSYVMGWYREAPGIERELVAAITSRGGSTNYADSVKGRFTISRDNAKNTVYFQMNSLKPEDTAVYYCAAEWLYPLDGGYPRPMDYWGQGTQVTVSS” it was “low polyreactivity”.
Consider “QVQLVESGGGLVQAGGSLRLSCAASGSTFHVNAMGWYRQAPGKEREFVAAISWRTGSTYYADSVKGRFTISRDNAKNTVYLQMNSLKPEDTAVYYCAAKRSYSNYDYWGQGTQVTVSS”, for which the “polyreactivity (PSR sort gate)” value was “high polyreactivity”.
Under “QVQLVESGGGLVQAGGSLRLSCAASGSTFHVYAMGWYRQAPGKEREFVASITTRGGSTYYADSVKGRFTISRDNAKNTVYLQMNSLKPEDTAVYYCNATPYPGGNGRWRFWKSYGYWGQGTQVTVSS” stands “high polyreactivity”; under “QVQLVESGGGLVQAGGSLRLSCAASGSTFHWYAMGWYRQAPGKERELVAVITWSGGSTYYADSVKGRFTISRDNAKNTVYLQMNSLKPEDTAVYYCARDWYRYKLWLFRGQDGDYWGQGTQVTVSS”, “low polyreactivity”; under “QVQLVESGGGLVQAGGSLRLSCAASGSTFHYYAMGWYRQAPGKERELVAAISSSGVSTYYADSVKGRFTISRDNAKNTVYLQMNSLKPEDTAVYYCNRASVFHYRWYYYWGQGTQVTVSS”, “high polyreactivity”.
Under “QVQLVESGGGLVQAGGSLRLSCAASGSTFHYYAMGWYRQAPGKERELVATITSSGCSTYYADSVKGRFTISRDNAKNTVYLQMNSLKPEDTAVYYCNKKSYYRDYGRYDYWGQGSQVTVSS” stands “low polyreactivity”.
For “QVQLVESGGGLVQAGGSLRLSCAASGSTFIANALGWYRQAPGKEREFVAAITWSGGSTYYADSVKGRFTLSRDNAKNTVFLQMNSLKPEDTAVYYCAKKGRTARGRYDYWGQGTQVTVSS”, the “polyreactivity (PSR sort gate)” value is reported as “low polyreactivity”.
On to “QVQLVESGGGLVQAGGSLRLSCAASGSTFIAYAMGWYRQAPGKESELVAAITSGDGTYYADSVKGRFTISRDNAKNTVYLQMNSLKPEDTAVYYCAVGYYWNEPLYWYGDFDYWGQGTQVTVSS”, for which the “polyreactivity (PSR sort gate)” value is “high polyreactivity”.
